# According to the supplement of paper PMC9112550, “Optimization of the antimicrobial peptide Bac7 by deep mutational scanning” (BMC Biology, 2022):
# Test system: Escherichia coli TOP10
# Experiment: shrunken log2 fold change of peptide-encoding DNA abundance (4.5 h post-induction vs induction); higher = less antimicrobial activity (less host growth inhibition)
# Settings: time post-induction: 4.5 h; library: site-saturation at positions 5, 18, 19, 20
# 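Also: peptides expressed intracellularly from a pBAD plasmid library in pooled LB shake-flask culture, induced with 0.3% L-arabinose, DNA abundance read by NGS, three biological replicates, DESeq2 with apeglm shrinkage.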
row,Sequence,shrunken log2 fold change
1,RRIRNRPPRLPRPRPRPTCSPRP,-0.261
2,RRIRQRPPRLPRPRPRPIKEPRP,-0.023
3,RRIRYRPPRLPRPRPRPMIMPRP,-0.0957
4,RRIRVRPPRLPRPRPRPFEVPRP,-0.164
5,RRIRERPPRLPRPRPRPERLPRP,0.171
6,RRIRYRPPRLPRPRPRPEARPRP,0.105
7,RRIRRRPPRLPRPRPRPLWAPRP,0.501
8,RRIRVRPPRLPRPRPRPWQNPRP,0.013
9,RRIRMRPPRLPRPRPRPKIMPRP,-0.208
10,RRIRWRPPRLPRPRPRPTAQPRP,0.894
11,RRIRYRPPRLPRPRPRPEASPRP,-0.0105
12,RRIRWRPPRLPRPRPRPKTHPRP,0.293
13,RRIRERPPRLPRPRPRPDFLPRP,0.0309
14,RRIRARPPRLPRPRPRPQTTPRP,0.768
15,RRIRYRPPRLPRPRPRPMTVPRP,-0.0212
16,RRIRVRPPRLPRPRPRPSGCPRP,-0.194
17,RRIRHRPPRLPRPRPRPYKLPRP,-0.611
18,RRIRHRPPRLPRPRPRPTQYPRP,0.124
19,RRIRHRPPRLPRPRPRPGHFPRP,0.0387
20,RRIRSRPPRLPRPRPRPALYPRP,-0.124
21,RRIRGRPPRLPRPRPRPDDFPRP,0.0116
22,RRIRYRPPRLPRPRPRPKCGPRP,0.0111
23,RRIRTRPPRLPRPRPRPQAWPRP,4.37
24,RRIRSRPPRLPRPRPRPYWKPRP,-0.144
25,RRIRTRPPRLPRPRPRPCLHPRP,-1.17

row,Sequence,shrunken log2 fold change
1,RRIRTRPPRLPRPRPRPMYKPRP,-0.0126
2,RRIRWRPPRLPRPRPRPYLSPRP,-0.242
3,RRIRCRPPRLPRPRPRPPRPPRP,0.957
4,RRIRQRPPRLPRPRPRPPALPRP,-0.179
5,RRIRHRPPRLPRPRPRPEIHPRP,0.0389
6,RRIRYRPPRLPRPRPRPPTQPRP,-0.056
7,RRIRCRPPRLPRPRPRPQTTPRP,-0.155
8,RRIRGRPPRLPRPRPRPENWPRP,0.594
9,RRIRNRPPRLPRPRPRPQPRPRP,0.507
10,RRIRCRPPRLPRPRPRPSVYPRP,-0.697
11,RRIRFRPPRLPRPRPRPASFPRP,0.279
12,RRIRGRPPRLPRPRPRPRYPPRP,0.232
13,RRIRFRPPRLPRPRPRPATHPRP,0.167
14,RRIRQRPPRLPRPRPRPIDGPRP,0.0784
15,RRIRPRPPRLPRPRPRPDWVPRP,0.0636
16,RRIRVRPPRLPRPRPRPYDRPRP,-0.00895
17,RRIRPRPPRLPRPRPRPFEFPRP,0.0458
18,RRIRWRPPRLPRPRPRPFSPPRP,0.0392
19,RRIRHRPPRLPRPRPRPPCAPRP,0.228
20,RRIRGRPPRLPRPRPRPQGTPRP,-0.0716
21,RRIRARPPRLPRPRPRPRTLPRP,0.226
22,RRIRARPPRLPRPRPRPGCLPRP,0.419
23,RRIRARPPRLPRPRPRPSGLPRP,0.0354
24,RRIRKRPPRLPRPRPRPQSMPRP,-0.00568
25,RRIRQRPPRLPRPRPRPRGWPRP,0.267

row,Sequence,shrunken log2 fold change
1,RRIRSRPPRLPRPRPRPNRGPRP,0.0138
2,RRIRSRPPRLPRPRPRPMRDPRP,0.0126
3,RRIRERPPRLPRPRPRPTGEPRP,-0.0152
4,RRIRARPPRLPRPRPRPRGGPRP,0.737
5,RRIRFRPPRLPRPRPRPMRMPRP,-0.0248
6,RRIRGRPPRLPRPRPRPQFQPRP,0.0768
7,RRIRSRPPRLPRPRPRPLYTPRP,-0.422
8,RRIRDRPPRLPRPRPRPRNQPRP,-0.00575
9,RRIRIRPPRLPRPRPRPTCKPRP,-0.466
10,RRIRNRPPRLPRPRPRPFAEPRP,-0.238
11,RRIRYRPPRLPRPRPRPLDNPRP,-0.0671
12,RRIRQRPPRLPRPRPRPPWKPRP,0.467
13,RRIRNRPPRLPRPRPRPKQKPRP,0.0568
14,RRIRMRPPRLPRPRPRPCCFPRP,0.116
15,RRIRRRPPRLPRPRPRPDETPRP,0.745
16,RRIRYRPPRLPRPRPRPFTYPRP,-0.529
17,RRIRARPPRLPRPRPRPDWPPRP,0.98
18,RRIRCRPPRLPRPRPRPSKAPRP,0.0693
19,RRIRGRPPRLPRPRPRPLGNPRP,0.17
20,RRIRYRPPRLPRPRPRPYYCPRP,0.00489
21,RRIRVRPPRLPRPRPRPYLGPRP,-0.177
22,RRIRCRPPRLPRPRPRPIEQPRP,0.0493
23,RRIRPRPPRLPRPRPRPGDSPRP,0.035
24,RRIRQRPPRLPRPRPRPSGGPRP,0.0203
25,RRIRVRPPRLPRPRPRPFDSPRP,-0.204

row,Sequence,shrunken log2 fold change
1,RRIRYRPPRLPRPRPRPQIPPRP,-0.17
2,RRIRIRPPRLPRPRPRPQCEPRP,-0.0436
3,RRIRQRPPRLPRPRPRPQGDPRP,-0.00865
4,RRIRPRPPRLPRPRPRPFKTPRP,-0.199
5,RRIRWRPPRLPRPRPRPHHPPRP,0.0415
6,RRIRARPPRLPRPRPRPQQDPRP,0.108
7,RRIRFRPPRLPRPRPRPRSVPRP,-0.00149
8,RRIRVRPPRLPRPRPRPIQIPRP,-1.33
9,RRIRARPPRLPRPRPRPCCAPRP,0.774
10,RRIRLRPPRLPRPRPRPFPTPRP,-0.158
11,RRIRVRPPRLPRPRPRPFNWPRP,-0.498
12,RRIRWRPPRLPRPRPRPIAPPRP,0.45
13,RRIRGRPPRLPRPRPRPCFKPRP,0.00363
14,RRIRPRPPRLPRPRPRPGHYPRP,-0.0973
15,RRIRCRPPRLPRPRPRPVWKPRP,0.159
16,RRIRSRPPRLPRPRPRPFQLPRP,-0.0513
17,RRIRPRPPRLPRPRPRPPKCPRP,-0.028
18,RRIRQRPPRLPRPRPRPKYQPRP,-0.369
19,RRIRERPPRLPRPRPRPQPRPRP,0.328
20,RRIRWRPPRLPRPRPRPCWCPRP,-0.215
21,RRIRCRPPRLPRPRPRPSGAPRP,0.176
22,RRIRVRPPRLPRPRPRPMKHPRP,-0.525
23,RRIRQRPPRLPRPRPRPRSNPRP,-0.108
24,RRIRSRPPRLPRPRPRPQGFPRP,-0.0809
25,RRIRMRPPRLPRPRPRPHGWPRP,0.839

row,Sequence,shrunken log2 fold change
1,RRIRMRPPRLPRPRPRPTYVPRP,-0.197
2,RRIRQRPPRLPRPRPRPYQVPRP,-0.0417
3,RRIRARPPRLPRPRPRPFKMPRP,-0.253
4,RRIRRRPPRLPRPRPRPYDMPRP,-0.532
5,RRIRFRPPRLPRPRPRPPYCPRP,-0.448
6,RRIRARPPRLPRPRPRPSLNPRP,-0.0562
7,RRIRIRPPRLPRPRPRPNVGPRP,0.011
8,RRIRCRPPRLPRPRPRPVQQPRP,0.148
9,RRIRTRPPRLPRPRPRPCPIPRP,-0.0712
10,RRIRERPPRLPRPRPRPNKEPRP,-0.0147
11,RRIRRRPPRLPRPRPRPDHEPRP,0.152
12,RRIRLRPPRLPRPRPRPLEEPRP,0.543
13,RRIRWRPPRLPRPRPRPMHIPRP,0.0409
14,RRIRQRPPRLPRPRPRPYYPPRP,0.0338
15,RRIRKRPPRLPRPRPRPDNSPRP,-0.00848
16,RRIRKRPPRLPRPRPRPADIPRP,-0.075
17,RRIRNRPPRLPRPRPRPPDDPRP,0.123
18,RRIRTRPPRLPRPRPRPEATPRP,1.05
19,RRIRNRPPRLPRPRPRPTYQPRP,-0.0398
20,RRIRQRPPRLPRPRPRPISVPRP,0.136
21,RRIRLRPPRLPRPRPRPTAAPRP,0.897
22,RRIRARPPRLPRPRPRPHIQPRP,-0.164
23,RRIRMRPPRLPRPRPRPKEPPRP,-0.074
24,RRIRYRPPRLPRPRPRPESPPRP,-0.0215
25,RRIRQRPPRLPRPRPRPKVTPRP,0.0375

row,Sequence,shrunken log2 fold change
1,RRIRFRPPRLPRPRPRPAQCPRP,0.0148
2,RRIRCRPPRLPRPRPRPHPSPRP,-0.00515
3,RRIRWRPPRLPRPRPRPTPWPRP,0.48
4,RRIRQRPPRLPRPRPRPTLMPRP,0.369
5,RRIRIRPPRLPRPRPRPYYGPRP,-2.94
6,RRIRCRPPRLPRPRPRPMHKPRP,-0.203
7,RRIRGRPPRLPRPRPRPWNVPRP,-0.0303
8,RRIRLRPPRLPRPRPRPSRQPRP,-0.189
9,RRIRLRPPRLPRPRPRPRGMPRP,0.239
10,RRIRWRPPRLPRPRPRPWLFPRP,0.0264
11,RRIRERPPRLPRPRPRPGRKPRP,-0.12
12,RRIRMRPPRLPRPRPRPPCPPRP,0.564
13,RRIRFRPPRLPRPRPRPWTQPRP,-0.959
14,RRIRMRPPRLPRPRPRPFLYPRP,-0.124
15,RRIRRRPPRLPRPRPRPEDFPRP,0.117
16,RRIRFRPPRLPRPRPRPSRVPRP,0.0914
17,RRIRLRPPRLPRPRPRPPTVPRP,0.026
18,RRIRFRPPRLPRPRPRPPTFPRP,-0.0402
19,RRIRSRPPRLPRPRPRPDDDPRP,-0.0062
20,RRIRCRPPRLPRPRPRPDQMPRP,0.101
21,RRIRTRPPRLPRPRPRPVPHPRP,-0.0291
22,RRIRHRPPRLPRPRPRPPGAPRP,0.935
23,RRIRHRPPRLPRPRPRPDAYPRP,0.027
24,RRIRNRPPRLPRPRPRPLHYPRP,-0.147
25,RRIRIRPPRLPRPRPRPKQWPRP,-0.0255
